US20150175687A1

Assays:
[1] = target: recombinant mature myostatin (human) (UniProt O14793); experiment: BIAcore, myostatin immobilized
[2] = target: recombinant mature myostatin (human) (UniProt O14793)

recombinant mature myostatin (human), sequence (O14793 267-375): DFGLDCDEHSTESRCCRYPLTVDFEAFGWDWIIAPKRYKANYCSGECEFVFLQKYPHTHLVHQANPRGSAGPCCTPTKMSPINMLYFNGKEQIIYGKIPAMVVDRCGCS

B1: recombinant human activin receptor IIB/Fc chimera (Fc fusion)
chain: SGRGEAETRECIYYNANWELERTNQSGLERCEGEQDKRLHCYASWRNSSGTIELVKKGCWLDDFNCYDRQECVATEENPQVYFCCCEGNFCNERFTHLPEAGGPEVTYEPPPTAPT
Kd [1]: 7 nM
IC50 (nM), myostatin-induced luciferase, C2C12 pMARE-luc [2]: 83 nM
